Reference: the supplement of paper PMC7877785
± gives the uncertainty stated by the source.

Test: self-splicing fitness, log relative to wild type (ln ratio); higher = more splicing; Tetrahymena group I intron in knt gene, E. coli kanamycin selection, DiMSum; sequences stand for … in CUCUCU…GGAGGGAAAAGUUAUCAGGCAUGCACCUGGUAGCUAGUCUUUAAACCAAUAGAUUGCAUCGGUUUAAAAGGCAAGACCGUCAAAUUGCGGGAAAGGGGUCAACAGCCGUUCAGUACCAAGUCUCAGGGGAAACUUUGAGAUGGCCUUGCAAAGGGUAUGGUAAUAAGCUGACGGACAUGGUCCUAACCACGCAGCCAAGUCCUAAGUCAACAGAUCUUCUGUUGAUAUGGAUGCAGUUCACAGACUAAAUGUCGGUCGGGGAAGAUGUAUUCUUCUCAUAAGAUAUAGUCGGACCUCUCCUUAAUGGGAGCUAGCGGAUGAAGUGAUGCAACACUGGAGCCGCUGGGAACUAAUUUGUAUGCGAAAGUAUAUUGAUUAGUUUUGGAGUACUCGUGGUCG
Procedure, shortened: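 Six replicate transformations of E. coli BL21(DE3) with a pET-22b(+) library were grown overnight at 37°C or 30°C. The library randomised all eight P1ex-region intron nucleotides, the intron lying in the knt kanamycin-resistance gene, and plates were LB agar with or without 25 μg/mL kanamycin plus 100 μg/mL carbenicillin, 50 μM IPTG and 0.2% rhamnose. Pooled colonies were amplicon-sequenced on an Illumina HiSeq 2500, and fitness is the DiMSum error-weighted combination of wild-type-normalised replicate fold changes, kanamycin versus none.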

Row | Sequence | self-splicing fitness (ln) (30 °C) | self-splicing fitness (ln) (37 °C)
1 | AUAAAGCAAUAUUACGCGUA | -0.873 ± 0.079 | -0.0465 ± 0.091
2 | AUAAAGCAAUAUUACGCGUU | -1.56 ± 0.084 | 0.0344 ± 0.1
3 | AUAAAGCAAUAUUACGCUGC | -3.15 ± 0.23 | -2.59 ± 0.33
4 | AUAAAGCAAUAUUACGCUGG | -1.43 ± 0.088 | -0.293 ± 0.13
5 | AUAAAGCAAUAUUACGGAAU | -1.16 ± 0.077 | -0.475 ± 0.1
6 | AUAAAGCAAUAUUACGGCAA | 0.284 ± 0.085 | -0.0372 ± 0.11
7 | AUAAAGCAAUAUUACGGCUG | 0.334 ± 0.069 | 0.483 ± 0.1
8 | AUAAAGCAAUAUUACGGGGC | -3.6 ± 0.26 | -1.97 ± 0.22
9 | AUAAAGCAAUAUUACGGUCC | -0.883 ± 0.14 | -0.458 ± 0.17
10 | AUAAAGCAAUAUUACGGUUA | 0.442 ± 0.078 | 0.534 ± 0.09
11 | AUAAAGCAAUAUUACGUACU | 0.123 ± 0.081 | 0.445 ± 0.095
12 | AUAAAGCAAUAUUACGUAGG | -2.93 ± 0.12 | -1.51 ± 0.15
13 | AUAAAGCAAUAUUACGUCCC | -0.201 ± 0.097 | -0.0866 ± 0.13
14 | AUAAAGCAAUAUUACGUUCA | 0.0367 ± 0.069 | 0.0639 ± 0.1
15 | AUACAGCAAUAUUACGAAAU | -1.44 ± 0.087 | -0.906 ± 0.11
16 | AUACAGCAAUAUUACGAGAA | -2.21 ± 0.25 | -1.79 ± 0.16
17 | AUACAGCAAUAUUACGAUUA | -1.18 ± 0.11 | -0.625 ± 0.11
18 | AUACAGCAAUAUUACGCAGA | -1.49 ± 0.13 | -1.51 ± 0.1
19 | AUACAGCAAUAUUACGCCUG | -1.94 ± 0.12 | 0.29 ± 0.13
20 | AUACAGCAAUAUUACGCGAU | -3.88 ± 0.33 | -1.94 ± 0.21
21 | AUACAGCAAUAUUACGCGCA | -0.623 ± 0.078 | -0.0747 ± 0.11
22 | AUACAGCAAUAUUACGCGCC | -1.06 ± 0.12 | -0.66 ± 0.16
23 | AUACAGCAAUAUUACGCGCU | -0.631 ± 0.094 | 0.0173 ± 0.12
24 | AUACAGCAAUAUUACGCUCG | -0.288 ± 0.12 | -0.205 ± 0.15

Row | Sequence | self-splicing fitness (ln) (30 °C) | self-splicing fitness (ln) (37 °C)
25 | AUACAGCAAUAUUACGCUCU | 0.359 ± 0.13 | 0.358 ± 0.16
26 | AUACAGCAAUAUUACGCUGC | -2.38 ± 0.18 | -3.02 ± 0.29
27 | AUACAGCAAUAUUACGGACU | -0.732 ± 0.06 | 0.141 ± 0.09
28 | AUACAGCAAUAUUACGGCAG | -2.21 ± 0.072 | -0.564 ± 0.077
29 | AUACAGCAAUAUUACGGGAG | -3.35 ± 0.15 | -2.12 ± 0.13
30 | AUACAGCAAUAUUACGGGCG | -1.25 ± 0.077 | -1.18 ± 0.11
31 | AUACAGCAAUAUUACGGUUC | -2.89 ± 0.12 | -1.2 ± 0.12
32 | AUACAGCAAUAUUACGUAGG | -2.13 ± 0.11 | -0.536 ± 0.12
33 | AUACAGCAAUAUUACGUCCA | -1.17 ± 0.08 | -0.0617 ± 0.086
34 | AUACAGCAAUAUUACGUGCC | -1.16 ± 0.078 | -0.689 ± 0.11
35 | AUACAGCAAUAUUACGUGUU | -3.98 ± 0.21 | -2.64 ± 0.22
36 | AUACAGCAAUAUUACGUUCA | -0.878 ± 0.07 | -0.304 ± 0.071
37 | AUACAGCAAUAUUACGUUCG | -1.69 ± 0.071 | -1.15 ± 0.093
38 | AUAGAGCAAUAUUACGAAGC | -2.7 ± 0.28 | -0.819 ± 0.35
39 | AUAGAGCAAUAUUACGACGC | -0.187 ± 0.14 | -0.765 ± 0.17
40 | AUAGAGCAAUAUUACGACUU | -0.0326 ± 0.11 | 0.17 ± 0.11
41 | AUAGAGCAAUAUUACGCCCA | -1.09 ± 0.29 | -1.03 ± 0.48
42 | AUAGAGCAAUAUUACGCCUG | -0.827 ± 0.092 | 0.302 ± 0.15
43 | AUAGAGCAAUAUUACGCGCA | -0.749 ± 0.14 | -0.253 ± 0.17
44 | AUAGAGCAAUAUUACGGACG | -2.69 ± 0.22 | -0.981 ± 0.19
45 | AUAGAGCAAUAUUACGGAGC | – | -2.05 ± 0.38
46 | AUAGAGCAAUAUUACGGCGC | -1.36 ± 0.096 | -0.282 ± 0.14
47 | AUAGAGCAAUAUUACGGCUG | -1.13 ± 0.13 | 0.795 ± 0.2
48 | AUAGAGCAAUAUUACGGGUG | -3.22 ± 0.24 | -2.58 ± 0.26

Row | Sequence | self-splicing fitness (ln) (30 °C) | self-splicing fitness (ln) (37 °C)
49 | AUAGAGCAAUAUUACGGUCU | -1.2 ± 0.11 | -0.695 ± 0.15
50 | AUAGAGCAAUAUUACGUUGA | -1.89 ± 0.12 | -1.4 ± 0.12
51 | AUAUAGCAAUAUUACGAAAA | -2.4 ± 0.41 | -1.72 ± 0.34
52 | AUAUAGCAAUAUUACGAACU | -1.38 ± 0.22 | 0.111 ± 0.21
53 | AUAUAGCAAUAUUACGAAUG | -1.77 ± 0.16 | -1.54 ± 0.18
54 | AUAUAGCAAUAUUACGACCA | -1.05 ± 0.32 | 0.391 ± 0.26
55 | AUAUAGCAAUAUUACGACUC | -0.877 ± 0.15 | -0.341 ± 0.2
56 | AUAUAGCAAUAUUACGAUCA | -1.4 ± 0.16 | -0.365 ± 0.22
57 | AUAUAGCAAUAUUACGAUCU | 0.333 ± 0.15 | 0.288 ± 0.13
58 | AUAUAGCAAUAUUACGAUGC | -2.89 ± 0.27 | -0.335 ± 0.22
59 | AUAUAGCAAUAUUACGCAUC | -2.63 ± 0.22 | -1.15 ± 0.26
60 | AUAUAGCAAUAUUACGGCGA | -0.84 ± 0.12 | -0.69 ± 0.13
61 | AUAUAGCAAUAUUACGGCUA | -0.422 ± 0.1 | -0.506 ± 0.12
62 | AUAUAGCAAUAUUACGGGGC | -3.4 ± 0.43 | -2.48 ± 0.32
63 | AUAUAGCAAUAUUACGGUGG | -3.4 ± 0.22 | -2.44 ± 0.25
64 | AUAUAGCAAUAUUACGUACA | -1.07 ± 0.14 | -0.785 ± 0.16
65 | AUAUAGCAAUAUUACGUCAA | -2.93 ± 0.25 | -2.06 ± 0.2
66 | AUAUAGCAAUAUUACGUCAG | -3.76 ± 0.31 | -1.62 ± 0.25
67 | AUAUAGCAAUAUUACGUCCC | -1.01 ± 0.17 | 0.139 ± 0.32
68 | AUAUAGCAAUAUUACGUCUU | -0.0336 ± 0.1 | -0.378 ± 0.1
69 | AUAUAGCAAUAUUACGUGCU | -1.24 ± 0.092 | -0.807 ± 0.13
70 | AUAUAGCAAUAUUACGUGUC | -4.06 ± 0.34 | -1.88 ± 0.32
71 | AUAUAGCAAUAUUACGUUGG | -4.08 ± 0.42 | -2.04 ± 0.26
72 | AUCAAGCAAUAUUACGAAGC | -3.81 ± 0.43 | –

Row | Sequence | self-splicing fitness (ln) (30 °C) | self-splicing fitness (ln) (37 °C)
73 | AUCAAGCAAUAUUACGAAUG | -3.16 ± 0.13 | -0.57 ± 0.1
74 | AUCAAGCAAUAUUACGAGAU | -2.81 ± 0.16 | -2.67 ± 0.21
75 | AUCAAGCAAUAUUACGAGGA | -2.51 ± 0.19 | -2.65 ± 0.26
76 | AUCAAGCAAUAUUACGAGGC | -3.86 ± 0.21 | -2.57 ± 0.2
77 | AUCAAGCAAUAUUACGAUGU | -0.836 ± 0.083 | -0.217 ± 0.091
78 | AUCAAGCAAUAUUACGAUUG | -4.34 ± 0.3 | -3.41 ± 0.3
79 | AUCAAGCAAUAUUACGCACU | -0.00274 ± 0.081 | 0.0749 ± 0.097
80 | AUCAAGCAAUAUUACGCAGA | -2.21 ± 0.18 | -2.52 ± 0.23
81 | AUCAAGCAAUAUUACGCAGU | -2.61 ± 0.14 | -1.71 ± 0.15
82 | AUCAAGCAAUAUUACGCCCA | -0.266 ± 0.15 | 0.0648 ± 0.2
83 | AUCAAGCAAUAUUACGCCCU | 0.228 ± 0.14 | 0.617 ± 0.18
84 | AUCAAGCAAUAUUACGCCGG | -1.22 ± 0.19 | 0.522 ± 0.2
85 | AUCAAGCAAUAUUACGCGAA | -0.924 ± 0.094 | -1.22 ± 0.12
86 | AUCAAGCAAUAUUACGCGCG | -1.01 ± 0.094 | -0.0559 ± 0.13
87 | AUCAAGCAAUAUUACGCGGA | -2.07 ± 0.1 | -1.94 ± 0.088
88 | AUCAAGCAAUAUUACGCGGC | -3.39 ± 0.33 | -1.98 ± 0.29
89 | AUCAAGCAAUAUUACGCUUA | -1.75 ± 0.1 | -0.843 ± 0.1
90 | AUCAAGCAAUAUUACGGACG | -0.832 ± 0.083 | 0.117 ± 0.11
91 | AUCAAGCAAUAUUACGGACU | -0.672 ± 0.076 | 0.456 ± 0.096
92 | AUCAAGCAAUAUUACGGAGU | -2.18 ± 0.095 | -0.783 ± 0.11
93 | AUCAAGCAAUAUUACGGCAG | -1.58 ± 0.085 | -1.55 ± 0.12
94 | AUCAAGCAAUAUUACGGCCG | -0.0854 ± 0.092 | -0.00151 ± 0.15
95 | AUCAAGCAAUAUUACGGCGU | 0.235 ± 0.1 | 0.219 ± 0.11
